The source of these data is article PMC12781765.

Assay [1] concerns the target T1, Venus-tagged Gβ3γ9, P16520;O14610.
T1 chain 1: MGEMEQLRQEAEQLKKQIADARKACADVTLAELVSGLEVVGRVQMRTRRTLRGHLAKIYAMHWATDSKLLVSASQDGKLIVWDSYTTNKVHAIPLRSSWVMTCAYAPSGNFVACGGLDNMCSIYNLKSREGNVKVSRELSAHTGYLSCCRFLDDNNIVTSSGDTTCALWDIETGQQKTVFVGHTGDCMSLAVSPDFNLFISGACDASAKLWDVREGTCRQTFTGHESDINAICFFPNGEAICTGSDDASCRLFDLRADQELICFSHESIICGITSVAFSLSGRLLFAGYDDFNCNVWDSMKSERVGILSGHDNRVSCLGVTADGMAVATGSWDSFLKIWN
T1 chain 2: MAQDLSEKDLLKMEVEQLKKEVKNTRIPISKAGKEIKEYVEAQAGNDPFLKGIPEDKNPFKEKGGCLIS
Nature of the assay: BRET-based Gβ3γ9 displacement assay (competition with GαoG92-NLuc). Particulars: chain shown with the change; n = 3; parent: est. 100; read off a plot. On the technique in general: In BRET a luciferase serves as donor, and the signal depends on an acceptor being close.

Assay [2] deals with GFP-Gβ1γ3 (GFP-tagged Gβ1 and GFP-tagged Gγ3), P62873;P63215. Nature of the assay: co-immunoprecipitation (GFP nanobody IP, Western blot quantification). The conditions noted are these: chain shown with the change; HEK293T cells; n = 4; parent: est. 1.0; read off a plot. A general note: A western blot detects proteins with antibodies after separation by electrophoresis.
GFP-Gβ1γ3 (GFP-tagged Gβ1 and GFP-tagged Gγ3), P62873;P63215, sequence (chain, as listed by the source, chain 1 of 2): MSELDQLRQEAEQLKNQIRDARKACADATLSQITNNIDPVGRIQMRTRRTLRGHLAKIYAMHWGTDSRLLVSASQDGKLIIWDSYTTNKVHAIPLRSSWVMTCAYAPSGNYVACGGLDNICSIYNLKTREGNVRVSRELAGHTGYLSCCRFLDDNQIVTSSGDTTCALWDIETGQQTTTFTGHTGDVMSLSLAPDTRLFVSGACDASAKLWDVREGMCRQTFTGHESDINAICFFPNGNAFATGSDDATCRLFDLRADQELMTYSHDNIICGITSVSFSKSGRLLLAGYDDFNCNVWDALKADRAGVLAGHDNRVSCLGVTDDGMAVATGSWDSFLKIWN
GFP-Gβ1γ3 (GFP-tagged Gβ1 and GFP-tagged Gγ3), P62873;P63215, sequence (chain, as listed by the source, chain 2 of 2): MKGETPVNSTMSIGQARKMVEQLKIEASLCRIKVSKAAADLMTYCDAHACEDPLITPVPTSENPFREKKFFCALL
The target of assay [3] is T2, GFP-Ric8A, Q9NPQ8.
T2 chain: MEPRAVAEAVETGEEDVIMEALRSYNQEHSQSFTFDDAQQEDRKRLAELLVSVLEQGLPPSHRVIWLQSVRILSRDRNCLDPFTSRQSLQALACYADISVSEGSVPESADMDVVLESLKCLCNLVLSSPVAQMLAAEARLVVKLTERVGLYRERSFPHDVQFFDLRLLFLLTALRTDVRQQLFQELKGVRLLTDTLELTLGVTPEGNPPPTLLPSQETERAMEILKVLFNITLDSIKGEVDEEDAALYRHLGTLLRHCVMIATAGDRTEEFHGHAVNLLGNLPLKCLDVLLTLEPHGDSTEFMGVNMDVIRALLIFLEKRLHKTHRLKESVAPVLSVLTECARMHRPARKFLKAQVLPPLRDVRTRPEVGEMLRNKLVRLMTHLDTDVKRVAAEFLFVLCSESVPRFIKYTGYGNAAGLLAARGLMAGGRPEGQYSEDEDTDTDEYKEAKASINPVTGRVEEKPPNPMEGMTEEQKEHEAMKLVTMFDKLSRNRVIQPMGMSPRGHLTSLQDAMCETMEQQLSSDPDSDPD
Described as above. The conditions noted are these: chain shown with the change; HEK293T cells; n = 4; parent: est. 1.0; read off a plot.

B1: Gαo wild-type (non-tagged), P09471-1 L39_G40insV (protein)
chain: MGCTLSAEERAALERSKAIEKNLKEDGISAAKDVKLLLLVGAGESGKSTIVKQMKIIHEDGFSGEDVKQYKPVVYSNTIQSLAAIVRAMDTLGIEYGDKERKADAKMVCDVVSRMEDTEPFSAELLSAMMRLWGDSGIQECFNRSREYQLNDSAKYYLDSLDRIGAADYQPTEQDILRTRVKTTGIVETHFTFKNLHFRLFDVGGQRSERKKWIHCFEDVTAIIFCVALSGYDQVLHEDETTNRMHESLMLFDSICNNKFFIDTSIILFLNKKDLFGEKIKKSPLTICFPEYTGPNTYEDAAAYIQAQFESKNRSPNKEIYCHMTCATDTNNIQVVFDAVTDIIIANNLRGCGLY
Regarding B1, the percent of parent (% of Gαo wild-type) in assay [1] was 30. The ratio to parent (folds over Gαo wild-type) came out at 0.29 in assay [2] and 6.2 in assay [3].
